These results are taken from US20170312350A1 (published 2017).

Assay [1] concerns the target T1, IGF2BP3 (IGF2BP3-001) peptide on HLA-A2 (human).
T1 peptide: KIQEILTQV
Nature of the assay: Target peptide titration on loaded target cells, IFN-gamma release; RNA-electroporated primary CD8+ T cells; full-length, on cells.

Assay [2] addresses T2, IGF2BP3-001 A9 (alanine-substitution variant of IGF2BP3-001) peptide on HLA-A*02, assumed (human).
T2 peptide: KIQEILTQA
Nature of the assay: cytokine release.

The target in assay [3] is T3, IGF2BP3-001 A2 (alanine-substitution variant of IGF2BP3-001) peptide on HLA-A*02, assumed (human).
T3 peptide: KAQEILTQV
The assay is described as follows: cytokine release.

In assay [4] the target is T4, IGF2BP3-001 A8 (alanine-substitution variant of IGF2BP3-001) peptide on HLA-A*02, assumed (human).
T4 peptide: KIQEILTAV
Nature of the assay: cytokine release.

B1: TCR R10P1A7 (TCR, V domains shown)
Valpha: GEDVEQSLFLSVREGDSSVINCTYTDSSSTYLYWYKQEPGAGLQLLTYIFSNMDMKQDQRLTVLLNKKDKHLSLRIADTQTGDSAIYFCAESKETRLMFGDGTQLVVKP
Vbeta: GAVVSQHPSWVICKSGTSVKIECRSLDFQATTMFWYRQFPKQSLMLMATSNEGSKATYEQGVEKDKFLINHASLTLSTLTVTSAHPEDSSFYICSARAGGHEQFFGPGTRLTVL
In assay [1], B1 yielded an EC50 of peptide of around 1 nM. In addition, the binding result in assay [2], in assay [3] and in assay [4] was “recognises” throughout.
